Measurements as given in the nanobody polyreactivity screen of Harvey et al. (2022).

Assay: yeast display, Sf9 membrane polyspecificity reagent, FACS + sequencing; frameworks hold sequencing errors
Summary of the method: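 Galactose induction of a Saccharomyces cerevisiae BJ5465 synthetic nanobody display library ran 36–48 hours. The cells were then stained for 1 hour at 4 °C with 10% biotinylated, detergent-solubilized Sf9 membrane reagent, pulled down on streptavidin microbeads and FACS-sorted into low and high (top ~1%) gates on expression and reagent-binding fluorescence. Labels for polyreactivity follow the gate of origin.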

Row | Sequence | polyreactivity (PSR sort gate)
1 | QVQLVESGGGLVQAGGSLRLSCAASGSTFEPNAMGWSRQEPGKERELVASITSSGGSTYYADSVKGRFTISRDNAKNTVYLQMKSLKPEDTAVYYCNARVPPQGWGPWKAFDYWGQGTQVTVSS | low polyreactivity
2 | QVQLVESGGGLVQAGGSLRLSCAASGSTFRNYAMGWYRQAPGKERELVAAISRGDGTYYADSVKGRFTISRDNAKNTVYLQMNSLKPEDTAVYYCAAAYRGRQNPMGYWGQGTQVTVSS | high polyreactivity
3 | QVHLVESGGGLVQAGGSLRLRSPASGRTFDDNAMGWYRQAPGKESEMVAGITDNGGGTNYADSVKGRFTISRDNAKNTVYLQMSSLKPEDTAVYYCAADGKLVYVNGYNLYYWGQGTQVTVSS | low polyreactivity
4 | QVQLVESGGGLVQAGGSLRLSCAASGRIFESKAMGWYRQAPGKERELVAAISVNGASTSYADSVKGRFTISRDNAKNTVYLQMNSLKPEDTAVYYCAARRGKGYYYWGQGTQVTVSS | high polyreactivity
5 | QVQLVESGGGLVQAGGSLRLSCAASGFTFSFYAMGWYRQAPGKERELVAGISKRGGSTYYADSVKGRFTISRDNAKNTVYFLMNSLNPEDTAVYYCAARWYARSLTRFNYWGQGTQVTVSS | high polyreactivity
6 | QVQLVESGGGLVEAGGSLRLSCAASGFIFGGYDMGWYRPAPGKQRELVAAITRSGGSTYYADSVKGRFTISRDNAKNTVYLEMNSLKPEDTAVYYCAAERQPYRTSSYNYWGQGTQVTVSS | high polyreactivity
7 | QVQLVESRGGLVQAGGSLRLSCAASGRIFHYYVMGWYRQAPGKERELVARITFNGGGTYYADSVKGRFTISRDIAKNTVYLQMNRLKPEDTAVYYCNARYPWRDWEDDYWGQGTQVTVSS | low polyreactivity
8 | QVQLVESGGGLVQAGGSLRLSCAASGYIFWKNAMGWYRQAPGKERELVAGITIRGGRTYYADSVKGRFTISRDNAKNTVYLQMNSLKPEDTAVYYCNALYDYYDPYGSWGQGTQVTVSS | high polyreactivity
9 | QVQLVESGGGIVQAGGSLRLSCAASGSTFLTNTMGWYRQAPGTESELVAAITLRGGRTYYADSVKGRFTISRDNAKNTVYLQMNSLKPEDTAVYYCNARNYYYPSDRDYWGQGTQVTGSS | low polyreactivity
10 | QVQLVESGGGLYQAGGSLRLTCAASGNIFYINTMGWYRQAPGKEMELVAAIEASDGSTYYADSVKGRFTISRDKAKNTVYLLMNSLKPEVTAVNYCATRRGYDSVYYFYTLWYYYWGQGTQVTVSS | low polyreactivity
11 | QVQLVESGGGLVQAGGSLRLSCAASGSIFDYTAMGWYRQAPGKERELVASIRWSGGRTYYADSVKGRFTISRDNAKNTVYLQMNSLKPEDTAVYYCNRKPQEYVLQGSSNGYDYWGQGTQVTVSS | low polyreactivity
12 | QVQLVESGGGLVQAGGSLRVSCAASGSTLVFNAMGWYRQAPGKEREIVAAISKSGGSRYYADSVKGRFTISRDNAKNTVYLQMNSLKPEDTAVYYCAPDSGGPGYAMDYWGQGTQVTVSS | high polyreactivity
13 | QVQLVESGGGLVQAGGSLRLSSAASGRTFFRSGMGWYRQAPGKEREFVAAITRSGTTTYYADSVKGRFTISRDNAKQTVYLPMNSLQPEDTAVYYCAAQRAAPVDGKSDYWGHGTQVTVSS | low polyreactivity
14 | QVQLVESGGGLVQAGGSLRLSCAASGLTFDQYVMGWYRQAPGKERELVAAISRRGGGTYYADSVKGRFTISRDNAKNTVYLQMNSLKPEDTAVYYCNTDQAWRSWRGNYPFLTGNYWGQGTQVTVSS | high polyreactivity
15 | QVQLVESGGGLVQAGGSLRLSCAASGRIISYNAMGWYRQAPGKERELVAAISWGGGSTYYADSVKGRFTISRDNAKNTVYLQLNSLKPEDTAVYYCAKGWYRIKRNDYWGQGTQVTVSS | low polyreactivity
16 | QVQLVESGGGLVQAGGSLRLSCAASGSTFPLNVMGWYRQAPGKERELVAAISSAGSTNYADSVKGRFTISRDNAKNTVYLQMNSLKPEDTAVYYCNADVRSTWYWLQYTPIYDYWGQGTQVTVSS | low polyreactivity
17 | QVQLVESGGGLVQAGRSLRLICAASGRTFSPNTMGWYRQAPGKEREFVAAINRSGGTTYYADSVKGRFTISRDIAKNTVYLQMNSRKPEDTAVYYCAADSIVPIYRGNDDNYWGQGTQVTVSS | low polyreactivity
18 | QVQLVESVVCLVQAGGSLRLSCAASGSIFRSYAMGWYRQAPGKERELVASISRRGGSTYYADSVKGRFTISRDNAKNTVYLQMNSLKPEDTAVYYCAAVGYNSRVSTTPSEMYYWGQGTQVTVSS | high polyreactivity
19 | QVQLVESGGGLVQAGGSLRLSCAASGFTFTRNAMGWYRQAPGKEREFVAAITRSGGSTYYADSVKGRFTISRDNAKNTVYLQMNSLKPEDTAVYYCNKRSPSTIRFDYWGQGTQVTVSS | high polyreactivity
20 | QVQLVESGGGLVQAGGSLRLSCAASGSTFVYAMAWSRQAPGKERELVAAIRLRSGSTYYADSVKGRFTISRDNAKNTVYLQMNSLKPEDTAVYYCAAAIQSSKVSVKFGYWGQGTQVTVSS | high polyreactivity
21 | QVQLVESGGGLVQAGGSLRLSCAASGRNFFANAMGWYRQAPGKERELVASITRRSGGTYYADSVKGRFTISRDNAKNTVYLQMISLKPEDTAVYYCAARYTFPKDLYYYWGQGTQVTVSS | high polyreactivity
